Molecular target: T1, SNTA1, Q13424
T1 sequence (Q13424 82-180, limits assumed, looked up): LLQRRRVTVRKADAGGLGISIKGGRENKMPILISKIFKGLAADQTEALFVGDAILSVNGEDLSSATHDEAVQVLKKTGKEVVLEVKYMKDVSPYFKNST
Assay: holdup assay
Parameters: key: below the threshold = too weak to quantify, mostly under pKd 3.1 to 4
Settings: plain residues with an end cap or a label only (N-terminal biotin on a linker: ado-ado)

| Binder | pKd |
| --- | --- |
| VLYPREGTEV [FOXI1, Q12951] | 4.02 |

Molecular target: GRIP2_4, Q9C0E4
Assay: holdup assay
Parameters: key: below the threshold = too weak to quantify, mostly under pKd 3.1 to 4
Settings: plain residues with an end cap or a label only (N-terminal biotin on a linker: ado-ado)

Chain of GRIP2_4, Q9C0E4 (Q9C0E4 446-548): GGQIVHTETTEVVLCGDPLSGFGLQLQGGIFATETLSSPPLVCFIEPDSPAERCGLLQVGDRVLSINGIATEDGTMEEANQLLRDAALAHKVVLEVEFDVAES

| Binder | pKd |
| --- | --- |
| VLYPREGTEV [FOXI1, Q12951] | below the threshold |

Molecular target: T2, RHPN1, Q8TCX5
T2 sequence (Q8TCX5 508-602, limits assumed, looked up): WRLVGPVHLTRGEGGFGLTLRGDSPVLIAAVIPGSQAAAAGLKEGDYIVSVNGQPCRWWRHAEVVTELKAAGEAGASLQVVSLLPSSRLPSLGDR
Assay: holdup assay
Parameters: key: below the threshold = too weak to quantify, mostly under pKd 3.1 to 4
Settings: plain residues with an end cap or a label only (N-terminal biotin on a linker: ado-ado)

| Binder | pKd |
| --- | --- |
| VLYPREGTEV [FOXI1, Q12951] | 3.95 |

Molecular target: T3, CARD11, Q9BXL7
T3 sequence (Q9BXL7 662-765, limits assumed, looked up): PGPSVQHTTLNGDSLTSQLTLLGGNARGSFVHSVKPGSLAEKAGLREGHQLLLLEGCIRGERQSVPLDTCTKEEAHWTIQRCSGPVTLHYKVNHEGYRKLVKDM
Assay: holdup assay
Parameters: key: below the threshold = too weak to quantify, mostly under pKd 3.1 to 4
Settings: plain residues with an end cap or a label only (N-terminal biotin on a linker: ado-ado)

| Binder | pKd |
| --- | --- |
| VLYPREGTEV [FOXI1, Q12951] | below the threshold |

Molecular target: MAGI1_1, Q96QZ7
Assay: holdup assay
Parameters: key: below the threshold = too weak to quantify, mostly under pKd 3.1 to 4
Settings: plain residues with an end cap or a label only (N-terminal biotin on a linker: ado-ado)

Chain of MAGI1_1, Q96QZ7 (Q96QZ7 1-106): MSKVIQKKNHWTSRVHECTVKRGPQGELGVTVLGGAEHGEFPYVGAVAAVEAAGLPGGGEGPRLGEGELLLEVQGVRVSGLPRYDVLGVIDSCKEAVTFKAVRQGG

| Binder | pKd |
| --- | --- |
| VLYPREGTEV [FOXI1, Q12951] | below the threshold |

Molecular target: MAGI2_6, Q86UL8
Assay: holdup assay
Parameters: key: below the threshold = too weak to quantify, mostly under pKd 3.1 to 4
Settings: plain residues with an end cap or a label only (N-terminal biotin on a linker: ado-ado)

Chain of MAGI2_6, Q86UL8 (Q86UL8 1141-1229): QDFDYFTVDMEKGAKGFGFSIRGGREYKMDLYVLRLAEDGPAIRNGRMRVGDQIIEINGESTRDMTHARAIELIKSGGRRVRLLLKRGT

| Binder | pKd |
| --- | --- |
| VLYPREGTEV [FOXI1, Q12951] | 4.46 |

Molecular target: T4, MPP7, Q5T2T1
T4 sequence (Q5T2T1 134-230, limits assumed, looked up): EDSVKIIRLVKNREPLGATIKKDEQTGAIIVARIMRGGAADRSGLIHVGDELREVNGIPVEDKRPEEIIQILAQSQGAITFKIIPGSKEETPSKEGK
Assay: holdup assay
Parameters: key: below the threshold = too weak to quantify, mostly under pKd 3.1 to 4
Settings: plain residues with an end cap or a label only (N-terminal biotin on a linker: ado-ado)

| Binder | pKd |
| --- | --- |
| VLYPREGTEV [FOXI1, Q12951] | below the threshold |

Molecular target: T5, FRMPD1, Q5SYB0
T5 sequence (Q5SYB0 52-145, limits assumed, looked up): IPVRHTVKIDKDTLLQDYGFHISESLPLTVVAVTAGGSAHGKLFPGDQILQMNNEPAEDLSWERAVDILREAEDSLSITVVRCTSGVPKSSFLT
Assay: holdup assay
Parameters: key: below the threshold = too weak to quantify, mostly under pKd 3.1 to 4
Settings: plain residues with an end cap or a label only (N-terminal biotin on a linker: ado-ado)

| Binder | pKd |
| --- | --- |
| VLYPREGTEV [FOXI1, Q12951] | below the threshold |

Molecular target: TJP1_2, Q07157
Assay: holdup assay
Parameters: key: below the threshold = too weak to quantify, mostly under pKd 3.1 to 4
Settings: plain residues with an end cap or a label only (N-terminal biotin on a linker: ado-ado)

Chain of TJP1_2, Q07157 (Q07157 181-274): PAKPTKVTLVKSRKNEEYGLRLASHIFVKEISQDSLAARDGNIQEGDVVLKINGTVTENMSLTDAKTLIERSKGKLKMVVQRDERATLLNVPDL

| Binder | pKd |
| --- | --- |
| VLYPREGTEV [FOXI1, Q12951] | below the threshold |

Molecular target: T6, MPP6, Q9NZW5
T6 sequence (Q9NZW5 125-219, limits assumed, looked up): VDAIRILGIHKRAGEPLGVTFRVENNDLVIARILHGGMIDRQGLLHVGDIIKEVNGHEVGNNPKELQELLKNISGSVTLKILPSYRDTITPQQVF
Assay: holdup assay
Parameters: key: below the threshold = too weak to quantify, mostly under pKd 3.1 to 4
Settings: plain residues with an end cap or a label only (N-terminal biotin on a linker: ado-ado)

| Binder | pKd |
| --- | --- |
| VLYPREGTEV [FOXI1, Q12951] | below the threshold |

Molecular target: CASK, O14936
Assay: holdup assay
Parameters: key: below the threshold = too weak to quantify, mostly under pKd 3.1 to 4
Settings: plain residues with an end cap or a label only (N-terminal biotin on a linker: ado-ado)

Chain of CASK, O14936 (O14936 487-570): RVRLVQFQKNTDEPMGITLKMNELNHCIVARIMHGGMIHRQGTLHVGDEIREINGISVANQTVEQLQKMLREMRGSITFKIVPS

| Binder | pKd |
| --- | --- |
| VLYPREGTEV [FOXI1, Q12951] | below the threshold |

Molecular target: T7, APBA2_1, Q99767
T7 sequence (Q99767 563-664, limits assumed, looked up): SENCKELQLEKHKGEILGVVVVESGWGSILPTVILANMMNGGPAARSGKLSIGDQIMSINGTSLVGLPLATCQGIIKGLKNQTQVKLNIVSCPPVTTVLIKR
Assay: holdup assay
Parameters: key: below the threshold = too weak to quantify, mostly under pKd 3.1 to 4
Settings: plain residues with an end cap or a label only (N-terminal biotin on a linker: ado-ado)

| Binder | pKd |
| --- | --- |
| VLYPREGTEV [FOXI1, Q12951] | below the threshold |

Molecular target: T8, SNTG1, Q9NSN8
T8 sequence (Q9NSN8 52-150, limits assumed, looked up): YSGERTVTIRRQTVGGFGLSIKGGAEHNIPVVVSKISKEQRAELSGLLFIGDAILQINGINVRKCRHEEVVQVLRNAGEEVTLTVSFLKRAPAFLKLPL
Assay: holdup assay
Parameters: key: below the threshold = too weak to quantify, mostly under pKd 3.1 to 4
Settings: plain residues with an end cap or a label only (N-terminal biotin on a linker: ado-ado)

| Binder | pKd |
| --- | --- |
| VLYPREGTEV [FOXI1, Q12951] | 4.13 |

Molecular target: T9, NHERF3_4, Q5T2W1
T9 sequence (Q5T2W1 373-468, limits assumed, looked up): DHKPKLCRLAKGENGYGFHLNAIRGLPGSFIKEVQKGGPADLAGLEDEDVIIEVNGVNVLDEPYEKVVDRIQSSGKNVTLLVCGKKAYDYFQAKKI
Assay: holdup assay
Parameters: key: below the threshold = too weak to quantify, mostly under pKd 3.1 to 4
Settings: plain residues with an end cap or a label only (N-terminal biotin on a linker: ado-ado)

| Binder | pKd |
| --- | --- |
| VLYPREGTEV [FOXI1, Q12951] | below the threshold |

Molecular target: T10, HTRA3, P83110
T10 sequence (P83110 354-453, limits assumed, looked up): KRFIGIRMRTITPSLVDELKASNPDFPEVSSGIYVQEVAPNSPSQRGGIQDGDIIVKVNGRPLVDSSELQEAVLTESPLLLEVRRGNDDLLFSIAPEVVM
Assay: holdup assay
Parameters: key: below the threshold = too weak to quantify, mostly under pKd 3.1 to 4
Settings: plain residues with an end cap or a label only (N-terminal biotin on a linker: ado-ado)

| Binder | pKd |
| --- | --- |
| VLYPREGTEV [FOXI1, Q12951] | below the threshold |

Molecular target: GRIP2_7, Q9C0E4
Assay: holdup assay
Parameters: key: below the threshold = too weak to quantify, mostly under pKd 3.1 to 4
Settings: plain residues with an end cap or a label only (N-terminal biotin on a linker: ado-ado)

Chain of GRIP2_7, Q9C0E4 (Q9C0E4 934-1023): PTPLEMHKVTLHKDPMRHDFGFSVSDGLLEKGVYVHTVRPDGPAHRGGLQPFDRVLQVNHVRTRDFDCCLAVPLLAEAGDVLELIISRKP

| Binder | pKd |
| --- | --- |
| VLYPREGTEV [FOXI1, Q12951] | below the threshold |

Molecular target: T11, TX1BP3, O14907
T11 sequence (O14907 10-122, limits assumed, looked up): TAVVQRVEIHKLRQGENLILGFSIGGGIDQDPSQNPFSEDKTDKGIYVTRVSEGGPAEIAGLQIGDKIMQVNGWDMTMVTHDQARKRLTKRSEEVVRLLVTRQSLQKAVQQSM
Assay: holdup assay
Parameters: key: below the threshold = too weak to quantify, mostly under pKd 3.1 to 4
Settings: plain residues with an end cap or a label only (N-terminal biotin on a linker: ado-ado)

| Binder | pKd |
| --- | --- |
| VLYPREGTEV [FOXI1, Q12951] | 3.73 |

Molecular target: T12, PDZD7_3, Q9H5P4
T12 sequence (Q9H5P4 857-944, limits assumed, looked up): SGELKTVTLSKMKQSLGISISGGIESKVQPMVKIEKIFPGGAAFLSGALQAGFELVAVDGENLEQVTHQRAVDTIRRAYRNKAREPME
Assay: holdup assay
Parameters: key: below the threshold = too weak to quantify, mostly under pKd 3.1 to 4
Settings: plain residues with an end cap or a label only (N-terminal biotin on a linker: ado-ado)

| Binder | pKd |
| --- | --- |
| VLYPREGTEV [FOXI1, Q12951] | 3.99 |

Molecular target: FRMPD2_1, Q68DX3
Assay: holdup assay
Parameters: key: below the threshold = too weak to quantify, mostly under pKd 3.1 to 4
Settings: plain residues with an end cap or a label only (N-terminal biotin on a linker: ado-ado)

Chain of FRMPD2_1, Q68DX3 (Q68DX3 770-861): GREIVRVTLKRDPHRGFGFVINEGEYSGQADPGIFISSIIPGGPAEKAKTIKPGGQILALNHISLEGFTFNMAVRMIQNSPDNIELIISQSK

| Binder | pKd |
| --- | --- |
| VLYPREGTEV [FOXI1, Q12951] | 3.86 |

Molecular target: T13, ARHGEF11, O15085
T13 sequence (O15085 42-136, limits assumed, looked up): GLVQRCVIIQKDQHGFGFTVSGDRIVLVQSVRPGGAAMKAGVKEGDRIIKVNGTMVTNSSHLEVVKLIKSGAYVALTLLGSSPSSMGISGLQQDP
Assay: holdup assay
Parameters: key: below the threshold = too weak to quantify, mostly under pKd 3.1 to 4
Settings: plain residues with an end cap or a label only (N-terminal biotin on a linker: ado-ado)

| Binder | pKd |
| --- | --- |
| VLYPREGTEV [FOXI1, Q12951] | 4.54 |

Molecular target: T14, APBA3_1, O96018
T14 sequence (O96018 389-490, limits assumed, looked up): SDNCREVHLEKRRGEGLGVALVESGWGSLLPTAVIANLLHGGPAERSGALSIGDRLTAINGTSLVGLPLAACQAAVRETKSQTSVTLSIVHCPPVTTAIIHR
Assay: holdup assay
Parameters: key: below the threshold = too weak to quantify, mostly under pKd 3.1 to 4
Settings: plain residues with an end cap or a label only (N-terminal biotin on a linker: ado-ado)

| Binder | pKd |
| --- | --- |
| VLYPREGTEV [FOXI1, Q12951] | below the threshold |

Molecular target: T15, TJP3_3, O95049
T15 sequence (O95049 375-456, limits assumed, looked up): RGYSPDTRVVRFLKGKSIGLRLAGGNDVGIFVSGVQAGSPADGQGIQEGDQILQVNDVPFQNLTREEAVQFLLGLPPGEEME
Assay: holdup assay
Parameters: key: below the threshold = too weak to quantify, mostly under pKd 3.1 to 4
Settings: plain residues with an end cap or a label only (N-terminal biotin on a linker: ado-ado)

| Binder | pKd |
| --- | --- |
| VLYPREGTEV [FOXI1, Q12951] | 3.48 |

From PMC9482650, “Quantitative fragmentomics allow affinity mapping of interactomes” (Nature Communications, 2022)
